assay: yeast display, Sf9 membrane polyspecificity reagent, FACS + sequencing; frameworks hold sequencing errors
Procedure, shortened: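 A synthetic nanobody library was expressed on Saccharomyces cerevisiae BJ5465 by galactose induction for 36–48 hours. The library was stained for 1 hour at 4 °C with 10% biotinylated, detergent-solubilized Sf9 membrane reagent and enriched with streptavidin microbeads before FACS. Low and high (top ~1%) gates were set on anti-HA fluorescence for expression and streptavidin fluorescence for reagent binding, and each polyreactivity label reflects the gate of origin.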

Sequence	polyreactivity (PSR sort gate)
QVHLVESGGGLVQAGGSLRISCAASGSTFVYYAMGWYRQAPGTERELVAAISVSGDSTYYADSVKGRFTISRDNAKNTVYLQMNSLKPEDTAVYYCATEVYWTVSYYGYDYYGGNYYYWGQGTQVTVSS	low polyreactivity
QVHLVESGGGLVQAGGSLRISCAASGYIFSYYAMGWYRQAPGKERELVASITSSGGSTYYADSVKGRFTISRDNAKNTVYLQMNSLKPEYTAEYYCNADVYDTYSPLGYYYWGQGTQVTVSS	low polyreactivity
QVHLVESGGGLVQAGGSLRLICAASGFIFPRTAMGSYRQAPGKERELVAAISVSGGSTYYADSVKGRFTISRDYAKNTVYLQMNSLKPEDTAVYYCAKRTWDLRRTRHYYWGQGNQVTVSS	low polyreactivity
QVHLVESGGGLVQAGGSLRLICAASGRIFTKYAMGCYRQAPGKEREVVAAISYRGGSTYYADSVKGRFTISRDNAKNTVYLQMNILKPEDTAVYYCAAYATSTRYCYWGQGTQVTVSS	high polyreactivity
QVHLVESGGGLVQAGGSLRLICAASGRTFWYYAMGWYRQAPGKERELVAAITSGGSTNYADSVKRRFTISRDNAKNTVYLQMNILKPEDTAVYYCATDNPVFEYDYCGQGTQVTVSS	low polyreactivity
QVHLVESGGGLVQAGGSLRLRCAASGIIFKSYAMGWYRQAPGKERELVAAITKRGGSTYYADSVKGRFTISRDNAKNTVYLQMNSLKPEDTAVYDCAADDGVGNTDDYWGQGTQVTVSS	high polyreactivity
QVHLVESGGGLVQAGGSLRLRCAASGRIFPSNAMGWYRQAPWKERELVAGITWRRDSTYYADSVKGRFTISRDKAKNTVYLQMNSLKPEDTAVYYCAATFRYTKLYYWGQGTQVTVSS	low polyreactivity
QVHLVESGGGLVQAGGSLRLRCAASGYPFKRNDMGWYRHAPGKETQFVPAISKSGGSTYYADSVKGRFTISRDNAKNSVYLQRNSLKPEDTAVSYCAATRGLYRYWGRDKFDYWGQGTQVTVSS	low polyreactivity
QVHLVESGGGLVQAGGSLRLSCAACGSNLFVNTMGWYRQAPGKERELVAAISWIDGSTYYADSVKGRFTISRDNAKNSVYLHMNSLKPEDTAVYYCAASTYWREYDYWGQGTQVNVSS	low polyreactivity
QVHLVESGGGLVQAGGSLRLSCAASASTLGSNTMGWYRQAPGKERELVATISRRGGSTYYADSVKGRFTISRDNAKYTVYLQMNSLKPADTAVYYCAARPVYKFGSWGQGTQVTVSS	high polyreactivity
QVHLVESGGGLVQAGGSLRLSCAASGFIFAEYAMGWYRQEPGKERELVATINIGGSTYYADSVKGRFTISRDNAKNTVYLQMNSLKPEDTAVYYCAAEFWWGDGSQGIYDYDYWGQGSQVTVSS	low polyreactivity
QVHLVESGGGLVQAGGSLRLSCAASGFIFLGNAMGGYRQAPGKERELVAAISSGGSTYADSVKGRFTISRDNAKNTVYLQMNSLKPEDTAVYYCAVDRAFRAQNYHEYDYWGQGTQVTVSS	low polyreactivity
QVHLVESGGGLVQAGGSLRLSCAASGFIFRSYAMGWYRQAPGKEREFVAAITTRGTGTYYADSVKGRFTISRDNEKNTFYLQMNSLKPEDTAVYYCAARRGWGDDYWGQGTQVTVSS	high polyreactivity
QVHLVESGGGLVQAGGSLRLSCAASGFNFNKYALGWYRQAPGKERELVAAITIGGSTYYADSVKGRFTISRDNAKNTVYFQMNSLKPEDTAVYYCAAVQGKVRGGYYWGQGTQVTVSS	high polyreactivity
QVHLVESGGGLVQAGGSLRLSCAASGFTFDYYAMGWYRQAPGKERELVAAISWSGASTYYADSVKGRFTISRDNAKNTVYLQMNSLKPEDTAVYYCNRPKWYDGDYWGQGTQVTVSS	high polyreactivity
QVHLVESGGGLVQAGGSLRLSCAASGFTFIDYAMGWYRQAPGTERELVAAITTGTITYYADSVQGRFTISRDNAKNTVYLQMNSLKPEDTAVYYCAPTYSRRGGYRMEYWGQGTQVTVSS	low polyreactivity
QVHLVESGGGLVQAGGSLRLSCAASGFTFLKNAMVWNRQAPWKERELVAAITSSGGRTYYADSVKGRFTISRDNAKNTVYLQMNSLKPEDTAVYYCNKGPLPGYDYWGQGTQVTVSS	high polyreactivity
QVHLVESGGGLVQAGGSLRLSCAASGFTFLTNAMGWYRQAPGKERELVAAISQSGGRTYYADSVKGRFTISRDNAKNTVYLQMNSLKPEDTAVYYCAAGVRSTGRMDYWGQGTQVTVSS	high polyreactivity
QVHLVESGGGLVQAGGSLRLSCAASGFTFPYYAMGWYRQAPGKERELVATIRSGGSTYYADSVKGRFTISRDNAKNSVYLQMNSLKPEDTAVYYCAKYQGLYSYEKYGYWGQGTQVTVSS	low polyreactivity
QVHLVESGGGLVQAGGSLRLSCAASGFTFRWYAMGGDRQAPGKERALVAAIDSTDITNYADSVKGRFTISRDNAKNTVYLQMNSLKPEDTAVYYCAAELYPALYPFRISGTYGYWGQGTLVTVSS	high polyreactivity
QVHLVESGGGLVQAGGSLRLSCAASGFTFRYNAMGWYRQAPGKERELVAAISWSGGSTYYADSVKGRFTISRDNAKNTVYLQMNSLKPEDTAVYYCNVGWGRVYKSRYDYWGQGTQVTVSS	high polyreactivity

Sequence	polyreactivity (PSR sort gate)
QVHLVESGGGLVQAGGSLRLSCAASGFTIASYDMGWYRQAPGKERELVAAISKGGGRTYYADSVKGRFTISRDNSKNTVYLQMNSLQPEDTAVYYCAAYAPYPRRAYDYWGQGTQVTVSS	low polyreactivity
QVHLVESGGGLVQAGGSLRLSCAASGFTYSPYVMGWSRQAPGKEWELVASISKRGGGTYYADSVKGRFTISRDNAKKTFYLQMNRLKPEDTAVYYCNVVTATAYQGVDYWGQGSQVTVSS	high polyreactivity
QVHLVESGGGLVQAGGSLRLSCAASGGIFDPYAMGWYRQAPGKERELVAAITNSGGSTYYADTLKGRFTISRDNAKNTVDLQMNSLKPEDTAVSYCAAEGLYVGYDYWGQGTEVTVSS	low polyreactivity
QVHLVESGGGLVQAGGSLRLSCAASGITDWIYAMGWYRQAPGKERELVAAITGRGGSTYYADSVKGRFTISRDKAKNTVYLQMNSLKPEVTAVDYCAAESWYSTYDYWGQGTQVTVSS	high polyreactivity
QVHLVESGGGLVQAGGSLRLSCAASGITFATYAMGWYRQAPGKERELVAAISGGGGRTYYADSVKGRFTISRDNAKNSVYLQMNSLKPEDTAVYYCATSQRSSQFYHWGQGTQVTVSS	high polyreactivity
QVHLVESGGGLVQAGGSLRLSCAASGITFYVYAMGWYRQAPGKERELVAAINYDSGSTYYADSVKGRFTISRDNAKNTVYLQMISLKPEDTAVYYCATDGVNPFYAYDYWGQGNQVTVSS	low polyreactivity
QVHLVESGGGLVQAGGSLRLSCAASGITIWNNAMGWYRQAPGKERELVATISSNGGRTYYADSVKGRFTISLDTAKNTVYFQMNSLKPEDTAVYYCNAARRAYGYNYWGQGTQVTVSS	low polyreactivity
QVHLVESGGGLVQAGGSLRLSCAASGLIFRKYAMGWYRQAPGKERELVAAISSGGDTNYADSVKGRFTISRDNAKNTVYLQMNSLKPEDTAVYYCNADRKYWYGIALEYWGQGTQVTVSS	high polyreactivity
QVHLVESGGGLVQAGGSLRLSCAASGLTFSSYSMGWYRQAPAKERELVATITSSGGDNTNYADSVKGRFTISRDNAKNTVYLQMNSLKPEDTAVYYFNKEGQQSYRWRMDYWGQGTQVTVSS	low polyreactivity
QVHLVESGGGLVQAGGSLRLSCAASGNIFYVYVMGWYRQAPGKERELVAYITSGASTYYSDSVKGRFTISRDNAKNTVYFQMNSLKPEDTAVYYCAAEALGGAGAYSTLYIYDYWGEGTQVTVSS	low polyreactivity
QVHLVESGGGLVQAGGSLRLSCAASGNTFDINAMGWYRQAPGKERELVAAISFSGGDTYYADSVKGRFTISRDNAKNTVYLQMNILKPEHTAVYYCAAEVPDTDAYGYWGQGTQVTVSS	low polyreactivity
QVHLVESGGGLVQAGGSLRLSCAASGNTFRWYDMGWYRQAPGKERELVAAITSSGSTTYYADSVKGRFTISRDNAKNTVYLQMNSLKPEDTAVFYCAARNYGPYDYWGQGTQVTVSS	low polyreactivity
QVHLVESGGGLVQAGGSLRLSCAASGRIFARYAMGWYRQAPGKEREFVASISFRGGSTYYADSVKGRFTISRDNAKNTVYLQMNSLKPEDTAVYYCAAEGYTRAYSGFYWYDYWGQGTQVTVSS	high polyreactivity
QVHLVESGGGLVQAGGSLRLSCAASGRIFDDYAMGWYRQAPGKERELVAAISWSGGSTYYADSVKVRFTISRDNAKNTVYLQRNSLKPEDTAVYYCAAPYHYYKRIGYDYWGQGTQVTVSS	low polyreactivity
QVHLVESGGGLVQAGGSLRLSCAASGRIFFYYAMGWYRQAPGKERELVAAISSTGGSTNYADSVKGRFTISRDNAKNTVYLQMNSLKPEDTAVYYCNKDLYYAYDYWGQGTQVTVSS	low polyreactivity
QVHLVESGGGLVQAGGSLRLSCAASGRIFGEYAMGWYRQAPGKERELVAAINSCGTSTNYADSVKGRLTFSRDNAKNTVYLQMNSLKPEDTAVYYCNAVGTYRPEYDSWVQGTQVTVSS	low polyreactivity
QVHLVESGGGLVQAGGSLRLSCAASGRIFGIYAMGWYRQAPGKERELVALITGGGSTNYADSVKGRFTISRDNAKNTVYLQMNSLKPEDTAVYYCAATVRRIVGNITRYDYWGQGTQVTVSS	low polyreactivity
QVHLVESGGGLVQAGGSLRLSCAASGRIFGLYAMGWYRQAPGKERELVASISYNGGSTYYADSVKGRFTISRDNAKNTVYLQMNSLKPEDTAVYYCAASLYYYGVRFGYWGQGTQVTVSS	high polyreactivity
QVHLVESGGGLVQAGGSLRLSCAASGRIFKIYAMGWYRQAPGKERELVASISWSGGRTYYADSVKGGFTISRDNAKNTVYVQMNSLKPEDTAVYYCAATFSNSSYIYDFWGQGTHVTVSS	high polyreactivity
QVHLVESGGGLVQAGGSLRLSCAASGRIFNSNAMGWYIQEPGKERELAAAISKRGGSTFYADSVKGRFTISRDNGKNTVFLQMKSLKPEYSAVYYCNARRLSTGFDRYDYWGQGTQVTGSS	high polyreactivity
